Results published in article PMC3867114, “Kinetic analysis of the interactions between plant thioredoxin and target proteins” (Frontiers in Plant Science, 2013).

Experiments:
[1] = molecular target: the molecule itself; experiment: mixed disulfide complex formation, non-reducing SDS-PAGE with N-terminal sequencing; 50 μM Trxh1CS and 50 μM PrxQ incubated for the periods indicated, quenched with 5% TCA, non-reducing SDS-PAGE
[2] = molecular target: the molecule itself; experiment: SEC; TSK-G2000SWXL in H buffer, 280 nm; as a2 but without NEM treatment before the chromatography (for MDH: second round of the fractionated complex)
[3] = molecular target: Trxh1 mutant with a C43S substitution (Arabidopsis thaliana) (UniProt P29448); experiment: SPR; Biacore X, 25°C; Trx variant immobilised as ligand on a CM5 chip by amine coupling (800–900 RU); target protein injected as analyte; H buffer (10 mM HEPES-NaOH, 150 mM NaCl, 50 μM EDTA, pH 7.4) with 0.005% Surfactant P20; 1:1 model for MDH, double exponential model for PrxQ; apparent (mixed disulfide formation with Trxh1CS)

koff [3] [s⁻¹]	kon [3] [M⁻¹ s⁻¹]	Binder	binding result [1]	binding result [2]
–	–	Trxh1 mutant with a C43S substitution (natural protein, Arabidopsis thaliana, UniProt P29448 1-114, looked up, thioredoxin h1 (Trxh1), cytosolic, Arabidopsis thaliana, AT3G51030, with C43S; Lacks the second cysteine of the catalytic motif; also called Trxh1CS; Trxh1CS mutant; source: expressed and purified as the wild-type Trxh1, with 0.5 mM DTT in all purification procedures) MASEEGQVIACHTVETWNEQLQKANESKTLVVVDFTASWCGPSRFIAPFFADLAKKLPNVLFLKVDTDELKSVASDWAIQAMPTFMFLKEGKILDKVVGAKKDELQSTIAKHLA	binds	–
0.000301	247	Arabidopsis thaliana cytosolic malate dehydrogenase, oxidized form (enzyme, UniProt P93819 1-332, looked up, Cys330–Cys330 intermolecular disulfide bond (oxidized form), cytosolic malate dehydrogenase (MDH), Arabidopsis thaliana, AT1G04410; also called MDH; oxidized MDH; source: cloned and purified as described in earlier work; oxidized by incubation with 50 μM CuCl2 for 1 h at 30°C) MAKEPVRVLVTGAAGQIGYALVPMIARGIMLGADQPVILHMLDIPPAAEALNGVKMELIDAAFPLLKGVVATTDAVEGCTGVNVAVMVGGFPRKEGMERKDVMSKNVSIYKSQAAALEKHAAPNCKVLVVANPANTNALILKEFAPSIPEKNISCLTRLDHNRALGQISERLSVPVSDVKNVIIWGNHSSSQYPDVNHAKVQTSSGEKPVRELVKDDAWLDGEFISTVQQRGAAIIKARKLSSALSAASSACDHIRDWVLGTPEGTFVSMGVYSDGSYSVPSGLIYSFPVTCRNGDWSIVQGLPIDEVSRKKMDLTAEELKEEKDLAYSCLS	–	binds
